Assay results: publication PMC6908968 (Cell, 2019)
Where a chain is given by its changes, count along the chain named.

T1: thermolysin-cleaved EBOV GP on Jurkat-GP cells (cleaved GP) (Zaire ebolavirus, Makona (GP1 core …, strain))
T1 chain 1: not shown
T1 chain 2: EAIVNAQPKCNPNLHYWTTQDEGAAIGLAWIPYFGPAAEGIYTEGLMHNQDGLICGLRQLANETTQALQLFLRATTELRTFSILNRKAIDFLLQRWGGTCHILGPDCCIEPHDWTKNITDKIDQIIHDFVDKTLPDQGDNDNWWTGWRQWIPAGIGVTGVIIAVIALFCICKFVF

B1: 5.6.c2724 (antibody, V domains shown)
VH: QVQLQQLGAGLLKPSETLSLTCAVSGGSFSGYYWSWIRQSPGKGLEWIGEVNQSGNTNYNPSLKSRVTISPDTSKNQFSLKLSSVTAADTAVYYCARGLEDTALLADAFDIWGQGTLVTVSS
VL: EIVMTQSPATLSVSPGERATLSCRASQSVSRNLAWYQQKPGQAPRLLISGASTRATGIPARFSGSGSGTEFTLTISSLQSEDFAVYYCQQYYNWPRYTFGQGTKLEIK
B2: 5.6.c2762 (antibody, V domains shown)
VH: QLQLQESGPGLVRPSETLSLTCTVSGGSINTNVYYWGWIRQPPGKGLEWIGTIHYSGSTYYNPSVKSRVTISVDTSTNQFSLRLNSLTAADTAVYYCARLAYGSGWAGWFDPWGQGTLVTVSS
VL: SSELTQDPAVSVALGQTVRITCQGDSLRVYYATWYQQKPGQAPVLVIYAKNSRPSGIPDRFSGSSSGNTASLTITGTQAEDEADYYCNSRDSSGKVWVFGGGTKLTVL
B3: 5.6.c2866 (antibody, V domains shown)
VH: QVQLVQSGAEVKKPGSSVKVSCKASGGTLSSYAISWVRQAPGQGLEWMGRIIPTLGMANYSQNFQGRVTITADKSTSTAYMELSSLRSEDTAVYYCARDPPPGYGDLFYYYSMDVWGQGTTVTVST
VL: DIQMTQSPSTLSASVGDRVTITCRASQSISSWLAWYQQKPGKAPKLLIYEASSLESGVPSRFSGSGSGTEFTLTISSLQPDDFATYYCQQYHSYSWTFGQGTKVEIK
B4: 5.6.c2693 (antibody, V domains shown)
VH: QVQVVESGGGVVQPGRSLRLTCATSGFTFRSYGMHWVRQAPGKGLEWVAGISYDGSNKYYADSVKGRFSISRDNSKNTVYLQMNSLRVEDTAVYYCANQLICVNGVCYKTTSVAGIDYWGQGTLVTVSS
VL: DIQMTQSPSSLSASVGDRVTITCRASQDISNYLAWFQQKPGKAPKCLIYAASSLQSGVPSKFSGSGSGTDFTLTISSLQPEDFATYYCQQYKDYPLTFGPGTKVDVR
B5: 5.6.c2957 (antibody, V domains shown)
VH: QVRMVQSGAEVKKPGSSVKVSCKTSGGTFSTYSISWVRQAPGHGLEWMGRLIPMLGTPNYAQKFQGRLTITADRSTSTAYMELSSLSSEDTAVYYCARDLGTVLTPGDSWGQGTLVTVSS
VL: B4 VL with D28G, K42E, C46S, S77N, K92N, D93S, P100G, D105E, V106I, R107K
B6: 5.6.c2725 (antibody, V domains shown)
VH: QVQLQESGPGLVKPSQTLSLTCTVSGGSISSGGYYWSWIRQHPGKGLEWIGYIYYSGSTYYNPSLKSRVSISAGTSKNQFSLKLSSVTAADTAVYYCARAYCGGDCYSLLYYYYGMDVWGQGTTVTVSS
VL: QSALTQPASVSGSPGQSITISCTGTSSDVGGYNSVSWYQQHPGKAPKLMIYDVSNRPSGVSDRFSGSKSGNTASLTISGLQAEDEADYYCSSYTSSSTLVFGGGTKLTVL
B7: 5.6.c2886 (antibody, V domains shown)
VH: QVQLQESGPGLVKPSQTLSLTCTVSGGSISSGDYYWSWIRQHPGKGLEYIGYIYYSGSTFHNPSLKSRVTISIDTSKNQFSLKLSSVTAADTAVYYCARDSGSEIIMGAYGMDVWGQGTTVTVSS
VL: DIQMTQSPSSVSASVGDRVTITCRASQGISWLAWYQQKPGKAPKLLIYAASSLQSGVPSRFSGSGSGTDFTLTISSLQPEDFATYYCQQANSFPWTFGQGTKVEIK
B8: 5.6.c2686 (antibody, V domains shown)
VH: QVQLQESGPGLVKPSGTLSLTCAVSGGSITSSDWWSWVRQTPGKGLEWIGQIYSGGMTDYNPSLKSRVTMSLDKSKNQFSVKLNSVTAADTAVYYCARHRLNAEMYCSGGSCYPADSNWFDPWGQGTLVTVSS
VL: DIQMTQSPSSLSASVGDRVTITCRASQSISTYLNWYQQKPGKAPKLLIYATSSLQSGVPSRFSGSGSGTDFTFTISSLQPEDFATYYCQQSYSTPFTFGPGTKVDIK
B9: 5.6.c2824 (antibody, V domains shown)
VH: QVQLQESGPGLVKPSGTLSLTCAVSGGSISSNSWWSWVRQPPGKGLEWIGDMYHSGSTNYNPSLKSRVTISVDKSKNQFSLKLSSVTAADTAVYYCARARHDDSNTFLWFVYGMDVWGQGTTVTVSS
VL: B8 VL with A25T, T31S, T51A, F73L, S77T, Y87F, F96R, P100Q, V104L, D105E
B10: 5.6.c2931 (antibody, V domains shown)
VH: QLQLQESGPGLVKPSQTLSLTCTVAGGSISRSSYYWGWIRQSPGKGLEWIGSIHYSGSTHYNSSLRSRVTISVDTSKNQFSLNLTSVTAADTAVYYCVRQSSVPYFDWSSPGQIDPWGQGTLVTVSS
VL: QLVLTQSPSASASLGASVKFTCTLSSGHRSYAIAWHQQQPEKGPRYLMKINSDGSHNKGDGIPDRFSGSSSGDERYLTISSLQSEDEADYYCQTWGTGIQVFGGGTKLTVL
B11: 5.6.c2712 (antibody, V domains shown)
VH: QVQLQESGPGLVKPSETLSLTCSVSGGSISSDYWSWIRQPPGKGLEWIGYIYYDGSTNFNPSLKSRVTISVDTSKNQLSLKLSSVTAADTAVYYCARVRRWIELGTGLGDWFDPWGQGTLVTVSS
VL: SSELTQDPAVSVALGQTVRITCQGDSLRSYYASWHQLKPGQAPVVVIYGIHNRPSGIPDRFSGSSSGNTASLTITGAQAEDEADYYCSSRDSSGNHLVFGGGTKLTVL
B12: 5.6.c2954 (antibody, V domains shown)
VH: QAQLQESGPGLVKPSQTLSLTCTVSGGFSSSGGFFWSWIRQHPGKDLEWIGYIYSSGSPYYKPSLKSRVTISIDTSKNQFSLRLSSVTAADTAIYYCARGRGEMLTGYFDYWGQGKLVTVSS
VL: SYVLTQPPSVSVAPGKTASITCGGNNIGSKSVHWYQQRPGQAPVLVIYYDTDRPSGIPERFSGSNSGNTATLTISRVEAGDEADYYCQVWDSSSDPLLFGGGTKLTVL
B13: 5.6.c2773 (antibody, V domains shown)
VH: QVELQESGPGLVKPSGTLSLTCTVSGGSISSYHWSWIRQPPGKGLEWIAYMYYSGSTNYNPSLKSRVTTSVETSKNQLSLKVSSVTAADTAVYYCARIVGDEIFFYGLDVWGQGTTVTVSS
VL: DIQMTQSPSSVSASVGDRVTITCRASQDISILLAWYQQKPGKAPKLLIYAASSLQSGVPSRFSGSGSGTDFTLTISSLQPEDFATYYCQQANSFPWTFAQGTKVEIK
B14: 5.6.c2828 (antibody, V domains shown)
VH: EVQLVQSGAEVKKPGESLRISCKGSGYSFTKYWISWVRQMPGKGLEWMGRIDPSDSSTNYSPSFQGHVTISDDKSTSIVYLQWSSLKASDTAMYYCARHSWVQNSAYDPQMISYDHYYGMDVWGQGTTVTVSS
VL: ENVLTQSPGTLSLSPGERATLSCRASQSVSSSYLAWYQQKPGQAPRLLIYGASSRATGIPDRFSGSGSGTDFTLTISRLEPGDFAVYYCHQYGSSPLTFGQGTRLEMK
B15: 5.6.c2692 (antibody, V domains shown)
VH: QVTLRESGPALVKSTQTLTLTCTFSGFSLSTSGMCVSWIRQPPGKALEWLALIDWDDGKYYSTSLKTRLTISKGTSKNQVVLTMTNMDPVDTATYYCARIRYTSDWFYDAFDIWGQGTMVTVSS
VL: ETVMTQSPATLSVSPGERATLSCRASQSVNSNLAWYQQRPGQAPRLLISGASTRATGIPARFSGSGSGTEFTLTISSLQSEDFAVYYCQQYNDWPPLTFGGGTKVEIK
B16: 5.6.c2913 (antibody, V domains shown)
VH: DVQLVESGGGLVQPGGSLRLSCVASGLTFSRDWMTWVRQAPGKGLEWVANIKQDGSEKYYLDSVKGRFTISRDNSNNALYLQMSSLRGEDTAVYYCARLHGGGFSDSDLFYYDFAMDVWGQGTTVTVSA
VL: B15 VL with T2I, N30I, S31N, R39K, S49Y, S77N, D93N, K104Q
B17: 5.6.c2801 (antibody, V domains shown)
VH: EVQLVESGGGLVQPGGSLRLSCAASGFTFSTYWMSWVRQAPGKGLEWVANIKEDGSEKYYVDSVKGRFTISRDNGKNSLYLQMNSLRAEETAVYYCARDVPGDTVLGDAFHIWGQGTMVTVSS
VL: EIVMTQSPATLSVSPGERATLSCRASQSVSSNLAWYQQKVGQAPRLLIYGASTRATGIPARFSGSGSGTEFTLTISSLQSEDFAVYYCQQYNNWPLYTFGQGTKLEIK
B18: 5.6.c2687 (antibody, V domains shown)
VH: QVQLMESGGGVVQPGRSLRLSCAASGFTFSSYGMHWVRQAPGKGLEWVAVIWNDGSNKYYADSVKGRFTISRDNSKNTLYLQMNSLRVEDTAVYYCARDSSAPAAIFYDAFDMWGQGTMVTVSS
VL: EIVMTQSPATLSVSPGERATLSCRASQSINSNLAWYQQKPGQAPRLLIYGVSTRATGIPARFSGSGSGTEFTLTISSLQSEDFAVYYCQQYNNWWTFGQGTKVEIK
B19: 5.6.c2961 (antibody, V domains shown)
VH: QVQLQESGPGLVKPSQTLSLTCTVSGDSISSGDYYWNWIRHHPGKGLEWLGYIYYSGSSDYNPSLKSRVTISVDTSKNHFSLKLSSVTAADTAIYYCARGSVSVLFGELDVWGQGTTVTVSS
VL: EIVLTQSPGTLSLSPGERATLSCRASQSVSNNFLAWYQQIRGQAPRLLIYGVSHRATGIPDRFSGSGSGTDFTLTISGLEPEDFALYYCQQYGRSPYTFGQGTRLEIK
B20: 5.6.c2798 (antibody, V domains shown)
VH: QVQLQESGPGLVKPSETLSLTCTVSGGSISPDYWTWIRQPPGKGLEWIGFIYYAGGTDYNPSLKSRVTMSIDTSKKQFFLKLNSVTAADTAVYYCASGVPEDNSQILYYYYGMDVWGPGTTVTVSS
VL: QSVLTQPPSVSAAPGQKVTISCSGSSPNIGNNYVSWYQQLPGTAPKLLIYDNNKRPSGIPDRFSGSKSGTSATLGITGLQTGDEADYYCGTWDRSLSAYVFGTGTKVTVL

target: EBOV GP ectodomain residues 1-636 (GPec) (Zaire ebolavirus, strain  …, UniProt Q05320)

Binder	binding result
B1	binds
B2	binds
B3	binds
B4	binds
B5	binds
B6	binds
B7	binds
B8	binds
B9	binds
B10	binds
B11	binds
B12	binds
B13	binds
B14	binds
B15	binds
B16	binds
B17	binds
B18	binds
B19	binds
B20	binds

Target: T1, thermolysin-cleaved EBOV GP on …

Binder	binding result
B1	binds
B2	binds
B3	binds
B4	binds
B5	binds
B6	binds
B7	binds
B8	binds
B9	binds
B10	binds
B11	binds
B12	binds
B13	binds
B14	binds
B15	binds
B16	binds
B17	binds
B18	binds
B19	binds
B20	binds
